Source: the nanobody polyreactivity screen of Harvey et al. (2022)

Experiment: yeast display, Sf9 membrane polyspecificity reagent, FACS + sequencing; frameworks hold sequencing errors
Outline: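 A synthetic nanobody library was expressed on Saccharomyces cerevisiae BJ5465 by galactose induction for 36–48 hours. The library was stained for 1 hour at 4 °C with 10% biotinylated, detergent-solubilized Sf9 membrane reagent and enriched with streptavidin microbeads before FACS. Low and high (top ~1%) gates were set on anti-HA fluorescence for expression and streptavidin fluorescence for reagent binding, and each polyreactivity label reflects the gate of origin.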

Sequence | polyreactivity (PSR sort gate)
QVQLVESGGGLFQAGGSLRLSCAASGGIFDVYDMGWYRQAPGKERELVAAISEKGGSTYYADSVKGRFTISRDNAKNTGYLQMNSLKPEDTAVYYCAADYVCLSVFSYWAWYDYWGQGTQVNVSS | low polyreactivity
QVQLVESGGGLVQAGGSLRLSCAASGIIFPYYTMGWYRQAPGKERELVARITNGGRTYYADSVKGRFTISRDNAKNTVYLQMISLKPEDTAVYYCNAGRYYIGGYWGQGTQVTVSS | high polyreactivity
QVQLVESGGVLLQAGGSLRLSCAASGRIFTLYDRGWYRQAPGKEREMDAAISNSAGSTYYADSVKGRFTISRDNAKNTVYLQMNSLKPEDTAGYYCARSYSYWGYRSVYYWGQGTQVTVSS | high polyreactivity
QVQLVESGGGLVQAGGSLRLSCAASGRTFFDYAMGWYRQAPGKERELVAAITSSGSSTYYADSVKGRFTISRDNAKNTVYLQMNSLKPEDTAVYYCAAGASANKKITSYDYWGQGTQVTVSS | low polyreactivity
QDQLVESGGGLVQAGCSLRLSCAASGRTFKDYAMGWYRQAPGKERELVAAITYRDRTYYADSVKGRFTISRDNAKNTVYLQMNSLNTEDTAVYYCNAEGFSGMDYWGKGTQVTVSS | low polyreactivity
QVQLVESGGGLVQAGGSLRLSCASSGSTFVPNTLGWYRQAPGKERELVAAISRSGGSTYYADSVKGRFTISRDNAKNTVYLQMNSLKPEDTAVYYCAARRFGYQGFAYGYWGQGTQVTVSS | high polyreactivity
QDQHVESGGGLVQAGGSLRLSCAASGSIFWYYAMGWYRQEPGKERELVAAISRSGGSTYYADSVKGRFTISRDNAKNTVYLEMNSLKPEDTAVYYCAAGYSSLRRFGVYYWGQGTQVTVSS | high polyreactivity
QVQLVESGGGLVQAGGSLRLSCAASGSTLYRYAMGWYRQAPGKERELVAAISSAGSTHYADSVKGRFTISRDNAKNNVYLQMKSLKPEDTAVYYCNAKGYLHRSRYDYWGQGTQVTVSS | high polyreactivity
QVQLVESGGGLVQAGGSLRLSCAASGFTFLAYAMGWYRQAPGKERELGAAISKSGGSTYYADSVKGRFTISRDNAKITVYLQMNSLKPEDTAVYYCNAGRRIKFYGSYDYWGQGTQVTVSS | high polyreactivity
QVQLVESGGGLVQAGGSLRLSCAASGSIFLYNALGWYRQAPGKERELVAAIYKSGGSTYYADSVKGRFTISRDNEKNSVYLQMNSLKPEDTAVYYCAAGYGSRIRYGSEYDYWGQGTQVTVSS | low polyreactivity
QVQLVESGGGLVQAGGSLRLSCAASGSTFVDNAMGWYRQAPGKERELVADITWSGGSTYYADSVKGRFTISRDNAKNTVYLQMNSLKPEDTAVYYCAKVPKSRGYVGGMDYWGQGTQVTVSS | low polyreactivity
QVQLVESGGGLVQAGGSLRLSCAASGNIFSYYAMGWYRQAPGKERELVAAIRSSGVGTRYADSVKGRFTISRDNAKNTVYLQINSLKPEDTAVYYCAATGYTGYSRYYYWGQGTQVTVSS | high polyreactivity
QVQLVESGGGLVQAGGSLRLSCAASGRIFGHYAMGWYRQAPGKERELVASISSNGGSTYYADSVKGRFTISRDNAKNTVYLQINSLKPEDTAVYYCAARVSTVFKRYYYWGQGTQVTVSS | high polyreactivity
QVQLVESGGGLVQAGGSLRLSCAASGIIFRRNAMGWYRQAPGKERELVASITSGGSTNYADSVKGRFTISRDNAKNTVYLQMNSLKPEDTAVYYCATVRKYRAMDYWGQGTQVTVSS | high polyreactivity
QVQLVESGGGLVQAGGSLRLSCAASGIIFDTYAMGWYRQAPGKERELVAAISRSGDTTYYADSVKGRFTISRDNAKNTVYLQMNSLKPEDTAVYYCNRGNRWNFDSWGQGTQVTVSS | high polyreactivity
QVQLVESGGGLVQAGGSLRLSCAASGRTFPGTAMGWYRQAPGKVRELVAAISSSGGSTHYADSVKGRFTISRDTAKNTVYYQMNSLKPEDTAVYYCNTVYAVWYKLDYWGQGTQVTVSS | high polyreactivity
QVQLVESGGGLVQAGGSLRLSCAASGSTFGTYARGWYRQAPGKERELVAAISWSGGSTYYADSVKGRFTISRDNAKNTVYLQMNSLKPEDTAVYYCNAKTSIGTWVGDDYWGQGTQVTVSS | low polyreactivity
QVQLVESGGGLVQAGGSLRLSCAASGSTIPLYAMGWYRQAPGKERELVAAISRRGGRTYYADSVKGRFTISRDNAKNTVYLQMNSLKPEDTAVYYCATAQGSRVDYWGQGTQVTVSS | high polyreactivity
QVQLVESGGGLVQAGGSLRLSCAASGSTFKHNTMGWYRQAPGKERELVAAITSSGGTYYADSVKGRFTISRDNAKNTVYLQMNSLKPEDTAVYYCAARVTYRGRAYDYWGQGTQVTVSS | high polyreactivity
QVQLVESGGGLVQAGGSIRLSCAASGSIFVDNARGWYRPAPGKERELVAAIRSRDTSTYYADSVKGRFTISRDNAKHTVYLQMNSLKPEDTAVYYCAARTSKRVSQYNYWGQGTQVTVSS | high polyreactivity
QVQLVESGGCLVQAGGSLRLSCAASGSIFERNVMGWYRHAPGKERELVAAITSGGSTNYADSVKGRFTISRDNAKNTVYLQMNSLKPEETAVYYCAADVPYRSRFYRYRLSGGDYWGQGTQVTVSS | low polyreactivity
QVQLVESGGGLVQAGGSLRLTCAASGITFYYYAMGWYRQAPAKERELVAAISFRGGSTYYADSVKARFTISRDNPKNTFYLQMNSLNPEDTAVYYCASVTSPSWYTWVTYDYWGQGTQVTVSS | high polyreactivity

Sequence | polyreactivity (PSR sort gate)
QVQLVESGGGLVQAGGSLRLSCAASGGTFEYNAMGWYRPAPGKERELVAAISKSGGRTYYADSVKGRFTISRDNAKNTVYLQMNSLKPEDTAVYYCAKRYVWGQGTQVTVSS | high polyreactivity
QVQLVESGGGLVQPGGSLRLSCAASGRTFGSYVMGWYRQAPWKQRELVATISRRGGTTYYADSVKGRVTISRDNAKNSVYLELLSLKPVDTAVYYCADKYFGTRYDYWGQGTQVTVSS | high polyreactivity
QVQLVESGGGLVQAGGSLRLSCAASGFIFYNYDMGWYRQAPGKERELVAAITGGGSTNYADSVKGRFTISRDNAKNTVYLKMNSLKPEDTAVYYCAAEEGPPCYRYDYWGQGTQVTVSS | low polyreactivity
QVQLVESGGGLVQAGGTLRLSCADSGSTFTYNAMGWYRQAPGKERELVASISSGTTTYYADSVKGRFTISRDNAKNTVYLQMNSLKPEDTAVYYCAVDSWSRVQGWLAHNYDYWGQGTQVTVSS | low polyreactivity
QVQLVESGGGLVQAGGSLRLSCAASGSIFSRNAMGWYRQAPGKERELVAAITRSGGRTYYADSVKGRFTISRDNAKNTVYLQMNSLKPEDTAVYYCNALASQEYDYWGQGTQVTVSS | high polyreactivity
QVQLVESGGGLVQAGGSLRLICSASGSIFYRNVKRWSRQAPGKEREFVATISRGGTTNYADSVKGRITISRDNAKYTVYLQMNSLKPEDTAVYYCAAPIGVVYVGKGYDYWGQGTQVTLSS | low polyreactivity
QVQLEDSGGGLVQAGGSLRLSCAASGRTFVFKAMGWYRPAPGKERELVAAITISGGSTYYADSVKGRFTISRDNAKNTVYLQMNSLKPEDTAVYSCNADSKIEVFSYIYDYWGQGTQVTVSS | high polyreactivity
QVQLVESGGGLVQAGGSLRLSCAASGSIFGSYAKGCYIQAPGKERELVAAITRAGSTNYADSVKGRFTISRDNGKNTVYLQMNSLKPEDTAVYYCNATGKSTYVLSPVPGAYDYWGQGTQVTVSS | low polyreactivity
QFQLVESGGGLVQAGGSLRLSCAASGSIFGPYAMGWYRQAPGKEREFVAAISRSGTRTNFADSVKGSFTISRDSAKNTVYLQMNSLKPEDTAVYYCATAAFIVGTSRTYDYWGQGTQVTVSS | high polyreactivity
QVQLVQSAVGLVQAGGSLRLICAASGITFLDNAMGWYRQAPGTERELVAAITSDGNPYYADCVKGRFTISRDNAKNTVYLQMNSLKPEDTAVYYCAVEVSDYYTYVSYDYCGQGTQVTVSS | low polyreactivity
QVQLVESGGGLVQAGGSLRLSCAASGIIFTKYFMGWYRQAPGKERELVAAINTDGGSTRYADSVKGRFTISRDNAKNTVYLQMNSLKPEDTAVYYCAAVSSRRPGYEYYYWGQGTQVTVSS | high polyreactivity
QVQLVESGGCIVQAGVSLRLSCSSSGRTFGYNAMGLYRNAPGKERELVAAINWSGASKYYADSVKGRFTISRDNAKNTVYLQMNSLKPEDTAVYYCAADYSYIYGFDYWGQGTQVTVSS | low polyreactivity
QVQLVESGGGLVQAGGSLRLSCAASGLTFYRYAMGWYRQARGKERELVAAISRRGGRTYSADSVKGRFTISRDNAKTTVYLQMNSLKPEDTAVYYCAAVTRDYRNDRRRQRYYYWGQGTQETVSS | high polyreactivity
QVQLVESGVGLVQAGGSLRLICAASGSTFAYNDMGWYRQAPGKERELVAAINGGGGSTYYGDSVKGRFTISRDNAKNTVYLHMNSLKPEVTAVYYCAKGEWSYVDSFGPYYDLVYWGQGTQVTVSS | low polyreactivity
QVQLVESGGGLVQAGGSLRLSCAASGRTFLWYAMGWYRQAPGKERELVAAITTAGSTYYADSVKGLFTISRDNAKNTVYLLMNSLKPEDTAVYYCNRLTYAYPPPVLGVGHDSWGQGTQVTVSS | low polyreactivity
QFHLVDSGGGLVQAGGRLRLSCPASGGICYQYAMGWYRQAPGKEREFVAAISRRGGSTYYADSVKGRFTISRDNAKNTVYLQMNSLKPEDTAVYYCAAAPSTRGGYQQMDSWGQGTQVTVSS | high polyreactivity
QVQLVESGGGLVQAGGSLRLSCAASGSIFPLNAMGWYRQAPGKERELVASISTGSSTYYADSVKGRFTISRDNAKNTVYLQMNSLKPEDTAVYYCAVDRVLFSDYYRGYEYNYWGQGTQVTVSS | low polyreactivity
QVQLVESGGGLVQAGGSLRLSCAASGNTFLYYAMGWYRQAPGKEMELVASINLSDGSTYYADSVKGRFTISRDNAKNTVYLQMNSLKPEDTAVYYCAAVYGGYTIYDYWGQGTQVTVSS | low polyreactivity
QFQLEESGGGLVQAGGSLRLSCAASGFTFFTYAMGWYRQAPGKERELVAAITTGGSTNYADSVKGRFTISRDNAKNTVYLQMNSLKPEDTAVYYCAVYGYVYGSAVQYDYWGQGTQVTVSS | low polyreactivity
QVQLVESGGGLVQAGGSLRLSCAASGSTFWFYAMGWYRQAPGKERELVAAISRSSGSTYYADSVKGRFTISRDNAKNTVYLQMNSLKPEDTAVYYCAKGWSSVPTQYDYWGQGTQVTVSS | low polyreactivity
QVQLVESGGGLVQAGGSLRLSCAASGIIFNWYAMGWYRQAPGKERELVAGISTSGGSTYYADSVKGRFTISRDNAKNTVYLQMNSLKPEDTAVYYCAARSRRYYGYDYWGQGTQVTVSS | high polyreactivity
